The supplement of paper PMC5998384

How the values were obtained:
HeLa Kyoto [1] = experiment: solubility in G1/S (NP-40 vs SDS abundance) (log2 ratio); higher = more soluble; conditions: cell cycle stage: G1/S
HeLa Kyoto [2] = experiment: melting temperature (median over replicates), in situ; higher = more thermally stable
HeLa Kyoto [3] = experiment: solubility change mitosis vs G1/S (difference of NP-40 vs SDS log2 ratios) (log2 ratio difference); higher = more soluble in mitosis
HeLa Kyoto [4] = experiment: thermal stability score vs G1/S (z-score of summed log2 fold changes over temperatures); higher = more thermally stable than in G1/S
[5] = cell cycle stage: early G1 (4.5 h after nocodazole release)
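Wherever melting temperature (median over replicates), in situ is given: HeLa Kyoto cells synchronized by double thymidine or nocodazole block, proteins quantified by TMT10plex mass spectrometry, three independent biological replicates.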
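Wherever solubility change mitosis vs G1/S (difference of NP-40 vs SDS log2 ratios) is given: synchronized HeLa Kyoto cells (double thymidine block for G1/S, nocodazole release for mitosis), protein amounts in NP-40 versus SDS lysates quantified by mass spectrometry, three biological replicates.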
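Wherever solubility in G1/S (NP-40 vs SDS abundance) is given: HeLa Kyoto cells arrested at G1/S by double thymidine block, proteins quantified by TMT10plex mass spectrometry in mild NP-40 versus SDS extracts, three biological replicates.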
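Wherever thermal stability score vs G1/S (z-score of summed log2 fold changes over temperatures) is given: synchronized HeLa Kyoto cells, proteins quantified by TMT10plex mass spectrometry, three biological replicates, mitosis taken 0.5 h after nocodazole release, G1/S directly after double thymidine block.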

Sequence | solubility in G1/S (log2) (HeLa Kyoto [1]) | melting temperature (HeLa Kyoto [2]; cell cycle stage: G1/S) [°C] | melting temperature (HeLa Kyoto [2]; cell cycle stage: mitosis) [°C] | solubility change mitosis (log2) (HeLa Kyoto [3]) | thermal stability score (HeLa Kyoto [4]; [5]) | thermal stability score (HeLa Kyoto [4]; cell cycle stage: mitosis)
MTNPSDRVLPANSMAESREGDFGCTVMELRKLMELRSRDALTQINVHYGGVQNLCSRLKTSPVEGLSGNPADLEKRRQVFGHNVIPPKKPKTFLELVWEALQDVTLIILEIAAIISLVLSFYRPAGEENELCGQVATTPEDENEAQAGWIEGAAILFSVIIVVLVTAFNDWSKEKQFRGLQCRIEQEQKFSIIRNGQLIQLPVAEIVVGDIAQVKYGDLLPADGILIQGNDLKIDESSLTGESDHVKKSLDKDPMLLSGTHVMEGSGRMVVTAVGVNSQTGIILTLLGVNEDDEGEKKKKGKKQGVPENRNKAKTQDGVALEIQPLNSQEGIDNEEKDKKAVKVPKKEKSVLQGKLTRLAVQIGKAGLLMSALTVFILILYFVIDNFVINRRPWLPECTPIYIQYFVKFFIIGITVLVVAVPEGLPLAVTISLAYSVKKMMKDNNLVRHLDACETMGNATAICSDKTGTLTMNRMTVVQAYIGGIHYRQIPSPDVFLPKVLDLIVNGISINSAYTSKILPPEKEGGLPRQVGNKTECALLGFVTDLKQDYQAVRNEVPEEKLYKVYTFNSVRKSMSTVIRNPNGGFRMYSKGASEIILRKCNRILDRKGEAVPFKNKDRDDMVRTVIEPMACDGLRTICIAYRDFDDTEPSWDNENEILTELTCIAVVGIEDPVRPEVPDAIAKCKQAGITVRMVTGDNINTARAIATKCGILTPGDDFLCLEGKEFNRLIRNEKGEVEQEKLDKIWPKLRVLARSSPTDKHTLVKGIIDSTVGEHRQVVAVTGDGTNDGPALKKADVGFAMGIAGTDVAKEASDIILTDDNFTSIVKAVMWGRNVYDSISKFLQFQLTVNVVAVIVAFTGACITQDSPLKAVQMLWVNLIMDTFASLALATEPPTESLLKRRPYGRNKPLISRTMMKNILGHAFYQLIVIFILVFAGEKFFDIDSGRKAPLHSPPSQHYTIVFNTFVLMQLFNEINSRKIHGEKNVFSGIYRNIIFCSVVLGTFICQIFIVEFGGKPFSCTSLSLSQWLWCLFIGIGELLWGQFISAIPTRSLKFLKEAGHGTTKEEITKDAEGLDEIDHAEMELRRGQILWFRGLNRIQTQIDVINTFQTGASFKGVLRRQNMGQHLDVKLVPSSSYIKVVKAFHSSLHESIQKPYNQKSIHSFMTHPEFAIEEELPRTPLLDEEEEENPDKASKFGTRVLLLDGEVTPYANTNNNAVDCNQVQLPQSDSSLQSLETSV [ATP2B4] | -0.254 | 54.7 | 54.9 | -0.0607 | 1.12 | 0.912
MVPSSPAVEKQVPVEPGPDPELRSWRHLVCYLCFYGFMAQIRPGESFITPYLLGPDKNFTREQVTNEITPVLSYSYLAVLVPVFLLTDYLRYTPVLLLQGLSFVSVWLLLLLGHSVAHMQLMELFYSVTMAARIAYSSYIFSLVRPARYQRVAGYSRAAVLLGVFTSSVLGQLLVTVGRVSFSTLNYISLAFLTFSVVLALFLKRPKRSLFFNRDDRGRCETSASELERMNPGPGGKLGHALRVACGDSVLARMLRELGDSLRRPQLRLWSLWWVFNSAGYYLVVYYVHILWNEVDPTTNSARVYNGAADAASTLLGAITSFAAGFVKIRWARWSKLLIAGVTATQAGLVFLLAHTRHPSSIWLCYAAFVLFRGSYQFLVPIATFQIASSLSKELCALVFGVNTFFATIVKTIITFIVSDVRGLGLPVRKQFQLYSVYFLILSIIYFLGAMLDGLRHCQRGHHPRQPPAQGLRSAAEEKAAQALSVQDKGLGGLQPAQSPPLSPEDSLGAVGPASLEQRQSDPYLAQAPAPQAAEFLSPVTTPSPCTLCSAQASGPEAADETCPQLAVHPPGVSKLGLQCLPSDGVQNVNQ [SLC19A1] | 0.075 | 57 | 54.9 | -0.0504 | -3.67 | -3.7
MDGETAEEQGGPVPPPVAPGGPGLGGAPGGRREPKKYAVTDDYQLSKQVLGLGVNGKVLECFHRRTGQKCALKLLYDSPKARQEVDHHWQASGGPHIVCILDVYENMHHGKRCLLIIMECMEGGELFSRIQERGDQAFTEREAAEIMRDIGTAIQFLHSHNIAHRDVKPENLLYTSKEKDAVLKLTDFGFAKETTQNALQTPCYTPYYVAPEVLGPEKYDKSCDMWSLGVIMYILLCGFPPFYSNTGQAISPGMKRRIRLGQYGFPNPEWSEVSEDAKQLIRLLLKTDPTERLTITQFMNHPWINQSMVVPQTPLHTARVLQEDKDHWDEVKEEMTSALATMRVDYDQVKIKDLKTSNNRLLNKRRKKQAGSSSASQGCNNQ [MAPKAPK3] | 0.454 | 49.1 | 51.2 | -0.141 | 0.292 | 1.45
MSGVRAVRISIESACEKQVHEVGLDGTETYLPPLSMSQNLARLAQRIDFSQGSGSEEEEAAGTEGDAQEWPGAGSSADQDDEEGVVKFQPSLWPWDSVRNNLRSALTEMCVLYDVLSIVRDKKFMTLDPVSQDALPPKQNPQTLQLISKKKSLAGAAQILLKGAERLTKSVTENQENKLQRDFNSELLRLRQHWKLRKVGDKILGDLSYRSAGSLFPHHGTFEVIKNTDLDLDKKIPEDYCPLDVQIPSDLEGSAYIKVSIQKQAPDIGDLGTVNLFKRPLPKSKPGSPHWQTKLEAAQNVLLCKEIFAQLSREAVQIKSQVPHIVVKNQIISQPFPSLQLSISLCHSSNDKKSQKFATEKQCPEDHLYVLEHNLHLLIREFHKQTLSSIMMPHPASAPFGHKRMRLSGPQAFDKNEINSLQSSEGLLEKIIKQAKHIFLRSRAAATIDSLASRIEDPQIQAHWSNINDVYESSVKVLITSQGYEQICKSIQLQLNIGVEQIRVVHRDGRVITLSYQEQELQDFLLSQMSQHQVHAVQQLAKVMGWQVLSFSNHVGLGPIESIGNASAITVASPSGDYAISVRNGPESGSKIMVQFPRNQCKDLPKSDVLQDNKWSHLRGPFKEVQWNKMEGRNFVYKMELLMSALSPCLL [MED17] | 0.0389 | 50.4 | 49.7 | -0.0898 | 0.0203 | 0.644
MAVRALKLLTTLLAVVAAASQAEVESEAGWGMVTPDLLFAEGTAAYARGDWPGVVLSMERALRSRAALRALRLRCRTQCAADFPWELDPDWSPSPAQASGAAALRDLSFFGGLLRRAACLRRCLGPPAAHSLSEEMELEFRKRSPYNYLQVAYFKINKLEKAVAAAHTFFVGNPEHMEMQQNLDYYQTMSGVKEADFKDLETQPHMQEFRLGVRLYSEEQPQEAVPHLEAALQEYFVAYEECRALCEGPYDYDGYNYLEYNADLFQAITDHYIQVLNCKQNCVTELASHPSREKPFEDFLPSHYNYLQFAYYNIGNYTQAVECAKTYLLFFPNDEVMNQNLAYYAAMLGEEHTRSIGPRESAKEYRQRSLLEKELLFFAYDVFGIPFVDPDSWTPEEVIPKRLQEKQKSERETAVRISQEIGNLMKEIETLVEEKTKESLDVSRLTREGGPLLYEGISLTMNSKLLNGSQRVVMDGVISDHECQELQRLTNVAATSGDGYRGQTSPHTPNEKFYGVTVFKALKLGQEGKVPLQSAHLYYNVTEKVRRIMESYFRLDTPLYFSYSHLVCRTAIEEVQAERKDDSHPVHVDNCILNAETLVCVKEPPAYTFRDYSAILYLNGDFDGGNFYFTELDAKTVTAEVQPQCGRAVGFSSGTENPHGVKAVTRGQRCAIALWFTLDPRHSERDRVQADDLVKMLFSPEEMDLSQEQPLDAQQGPPEPAQESLSGSESKPKDEL [P3H1] | -0.0649 | 53.2 | 54.3 | -0.0228 | 1.77 | 3.07
MSLEDPFFVVRGEVQKAVNTARGLYQRWCELLQESAAVGREELDWTTNELRNGLRSIEWDLEDLEETIGIVEANPGKFKLPAGDLQERKVFVERMREAVQEMKDHMVSPTAVAFLERNNREILAGKPAAQKSPSDLLDASAVSATSRYIEEQQATQQLIMDEQDQQLEMVSGSIQVLKHMSGRVGEELDEQGIMLDAFAQEMDHTQSRMDGVLRKLAKVSHMTSDRRQWCAIAVLVGVLLLVLILLFSL [STX10] | -0.293 | 52.1 | 51.6 | -0.107 | 2.01 | 0.0715
MQAGKPILYSYFRSSCSWRVRIALALKGIDYKTVPINLIKDRGQQFSKDFQALNPMKQVPTLKIDGITIHQSLAIIEYLEEMRPTPRLLPQDPKKRASVRMISDLIAGGIQPLQNLSVLKQVGEEMQLTWAQNAITCGFNALEQILQSTAGIYCVGDEVTMADLCLVPQVANAERFKVDLTPYPTISSINKRLLVLEAFQVSHPCRQPDTPTELRA [GSTZ1] | 0.447 | 53.5 | 52.9 | 0.0886 | -2.37 | -2.09
MTMDGDSSTTDASQLGISADYIGGSHYVIQPHDDTEDSMNDHEDTNGSKESFREQDIYLPIANVARIMKNAIPQTGKIAKDAKECVQECVSEFISFITSEASERCHQEKRKTINGEDILFAMSTLGFDSYVEPLKLYLQKFREAMKGEKGIGGAVTATDGLSEELTEEAFTNQLPAGLITTDGQQQNVMVYTTSYQQISGVQQIQFS [NFYB] | 0.036 | 54.5 | 54.5 | 0.064 | 0.178 | 0.0131
